In patent US12043658B2, “Conjugate comprising an active MMP-9-binding peptide” (Daiichi Sankyo Company, Limited, priority 2017, dated 2024):

B1: M91011: SPINK2 mutant active MMP-9-binding peptide, SEQ ID NO: 7 (FIG. 21) (protein)
chain: DPQFGLFSKYRTPNCMMYKYAQCSHKSQPVCGSDMSTYANECTLCMKIREGGHNIKIIRNGPC
modifications: binder
B2: M91005: SPINK2 mutant active MMP-9-binding peptide, SEQ ID NO: 5 (FIG. 19) (protein)
chain: DPQFGLFSKYRTPNCRKRGGPSCQMSYNPVCGSDMSTYANECTLCMKIREGGHNIKIIRNGPC
modifications: binder

Columns and labels:
active hMMP-9(cat)_V398A = biological target: T1, active hMMP-9(cat)_V398A (Homo sapiens, UniProt P14780, V398A); test: Inhibition of human MMP-9 mutant V398A; assay type: biochemical
T1 construct: of the enzyme active domain (Phe107-Pro449) were constructed; His tag (before the propeptide) (N, cleaved yes); made in house; host or cells: FreeStyle 293F
T1 sequence (P14780 107-449 V398A): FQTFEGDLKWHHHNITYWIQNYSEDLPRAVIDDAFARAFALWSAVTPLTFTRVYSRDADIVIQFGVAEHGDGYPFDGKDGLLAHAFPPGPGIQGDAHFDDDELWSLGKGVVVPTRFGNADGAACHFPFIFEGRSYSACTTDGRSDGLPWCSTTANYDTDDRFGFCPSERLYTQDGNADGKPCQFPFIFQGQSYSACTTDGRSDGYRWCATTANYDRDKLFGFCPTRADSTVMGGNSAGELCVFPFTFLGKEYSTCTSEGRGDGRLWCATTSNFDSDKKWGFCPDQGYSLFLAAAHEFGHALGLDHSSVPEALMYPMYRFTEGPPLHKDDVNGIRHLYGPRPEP
Description: (§1) The substrate peptide MOCAc-KPLGL-A2pr(Dnp)-AR-NH2 (SEQ ID NO: 30 (FIG. 46)) (PEPTIDE […], INC.; 3226-v) was dissolved in water to 1 mM, then diluted with an assay buffer (50 mM Tris-HCl, 200 mM NaCl, 2 mM CaCl2, pH7.5) and used at the final concentration of 10 μM. 50 μl each of the active hMMP-9(cat) diluted with the assay buffer or the active hMMP-9(cat)_XnnnY and the active MMP-9-binding peptide or sc-311438 (Santa Cruz Biotechnology, Inc.) were mixed, and reacted at 37° C. for 1 hour. Then, 100 μl of the substrate diluted with the assay buffer was added, and fluorescence signals (excitation 328 nm/emission 393 nm) were measured with Enspire (PerkinElmer, Inc.). The final concentrations of the active hMMP-9(cat) and the active hMMP-9(cat)_XnnnY were at 1 nM, and the final concentrations of the active MMP-9-binding peptide and sc-311438 were at 0.5 to 330 nM. For reactions and measurements, a ProteoSave™ SS96F black plate (Sumitomo Bakelite Co., Ltd.) was used.
(§2) The 50% inhibitory concentration (IC50) of each binding peptide was calculated using GraphPad Prism (version 5.0; GraphPad Software), by calculating the substrate peptide degradation rate of the active MMP-9-binding peptide at each concentration, and taking the degradation rate at an inhibitor concentration of 0 nM as 100% (FIGS. 54(A) and 54(B)). […]

active hMMP-9(cat)_L397A = biological target: T2, active hMMP-9(cat)_L397A (Homo sapiens, UniProt P14780, L397A); test: Inhibition of human MMP-9 mutant L397A; assay type: biochemical
T2 construct: of the enzyme active domain (Phe107-Pro449) were constructed; His tag (before the propeptide) (N, cleaved yes); made in house; host or cells: FreeStyle 293F
T2 sequence (P14780 107-449 L397A): as the sequence (P14780 107-449 V398A) above, with L291A, A292V counted along it
Description: as §1, §2

active hMMP-9(cat)_F192A = biological target: T3, active hMMP-9(cat)_F192A (Homo sapiens, UniProt P14780, F192A); test: Inhibition of human MMP-9 mutant F192A; assay type: biochemical
T3 construct: of the enzyme active domain (Phe107-Pro449) were constructed; His tag (before the propeptide) (N, cleaved yes); made in house; host or cells: FreeStyle 293F
T3 sequence (P14780 107-449 F192A): as the sequence (P14780 107-449 V398A) above, with F86A, A292V counted along it
Description: as §1, §2

active hMMP-9(cat)_Y179A = biological target: T4, active hMMP-9(cat)_Y179A (Homo sapiens, UniProt P14780, Y179A); test: Inhibition of human MMP-9 mutant Y179A; assay type: biochemical
T4 construct: of the enzyme active domain (Phe107-Pro449) were constructed; His tag (before the propeptide) (N, cleaved yes); made in house; host or cells: FreeStyle 293F
T4 sequence (P14780 107-449 Y179A): as the sequence (P14780 107-449 V398A) above, with Y73A, A292V counted along it
Description: as §1, §2

[1] = biological target: T5, wild-type active hMMP-9(cat) (Homo sapiens, UniProt P14780); test: Inhibition of wild-type active hMMP-9(cat), substrate peptide; assay type: biochemical; settings: wild-type active hMMP-9(cat) 1 nM, substrate peptide 10 μM
T5 construct: and an enzyme active domain (Phe107-Pro449) was constructed; His tag (before the propeptide) (N, cleaved yes); made in house; host or cells: FreeStyle 293F
T5 sequence (P14780 107-449): as the sequence (P14780 107-449 V398A) above, with A292V counted along it
Description: as §1, §2

[2] = biological target: active human MMP-9 enzyme active domain (Homo sapiens, UniProt P14780); test: Size exclusion chromatography binding to active hMMP-9(cat)_His6; set-up: an enzyme active domain (Phe107-Pro449) and a His tag; made in house; host or cells: FreeStyle 293F; settings: 25 μM enzyme, 75 μM inhibitor
Sequence of active human MMP-9 enzyme active domain (P14780 107-449): as the sequence (P14780 107-449 V398A) above, with A292V counted along it
Description: (§3) With M91005 and M91011 prepared in (1-2), active hMMP-9(cat)_His6 prepared in (2-1-4), and hMMP-9(cat)_E402Q_His6 prepared in (11-3), the binding activity was evaluated by size exclusion chromatography. 25 μM active hMMP-9(cat)_His6 or hMMP-9(cat)_E402Q_His6 and 75 μM active MMP-9-binding peptide or hTIMP-1 (in-house preparation) were mixed, and reacted at 4° C. for 1 hour. After the reaction, 10 μl of the reaction solution was analyzed by size exclusion chromatography. The chromatographic conditions were as follows.
(§4) Detection: Absorbance (280 nm)
(§5) When only active hMMP-9(cat)_His6 was analyzed, the peak of active hMMP-9(cat)_His6 was detected at a retention time of 7.0 minutes (FIG. 53(A)). When a mixture reaction solution of active hMMP-9(cat)_His6 and hTIMP-1 or active MMP-9-binding peptides M91005 or M91011 was analyzed, the retention time of the peak of active hMMP-9(cat)_His6 was shifted to the high molecular weight side (FIG. 53(A)). […] When only human MMP-9(cat)_E402Q_His6 was analyzed, the peak of hMMP-9(cat)_E402Q_His6 was detected at a retention time of 7.1 minutes (FIG. 53(B)). When a mixed reaction solution of human MMP-9(cat)_E402Q_His6 and hTIMP-1 was analyzed, the retention time of the peak of hMMP-9(cat)_E402Q_His6 was shifted to the high molecular weight side (FIG. 53(B)). […] In contrast, when a mixture reaction solution of hMMP-9(cat)_E402Q_His6 and the active MMP-9-binding peptide M91005 or M91011 was analyzed, the retention time of the peak of the hMMP-9(cat)_E402Q_His6 was not changed (FIG. 53(B)). It should be noted that when only hTIMP-1 or the active MMP-9-binding peptides M91005, M91011 was analyzed, the peak of hTIMP-1 was detected at a retention time of 7.3 minutes, the peak of the active MMP-9-binding peptide M91005 was detected at a retention time of 8.2 minutes, and the peak of the active MMP-9-binding peptide M91011 was detected at a retention time of 8.1 minutes (FIG. 53(C)).

[3] = biological target: T6, human MMP-9 enzyme active domain E402Q mutant (Homo sapiens, UniProt P14780, E402Q); test: Size exclusion chromatography binding to hMMP-9(cat)_E402Q_His6; settings: 25 μM enzyme, 75 μM inhibitor
T6 construct: an enzyme active domain E402Q mutant (Phe107-Pro449, E402Q) and a His tag; made in house; host or cells: FreeStyle 293F
T6 sequence (P14780 107-449 E402Q): as the sequence (P14780 107-449 V398A) above, with A292V, E296Q counted along it
Description: as §3, §4, §5

active hMMP-9(cat)_P193A = biological target: T7, active hMMP-9(cat)_P193A (Homo sapiens, UniProt P14780, P193A); test: Inhibition of human MMP-9 mutant P193A; assay type: biochemical
T7 construct: of the enzyme active domain (Phe107-Pro449) were constructed; His tag (before the propeptide) (N, cleaved yes); made in house; host or cells: FreeStyle 293F
T7 sequence (P14780 107-449 P193A): as the sequence (P14780 107-449 V398A) above, with P87A, A292V counted along it
Description: as §1, §2

active hMMP-9(cat)_D185A = biological target: T8, active hMMP-9(cat)_D185A (Homo sapiens, UniProt P14780, D185A); test: Inhibition of human MMP-9 mutant D185A; assay type: biochemical
T8 construct: of the enzyme active domain (Phe107-Pro449) were constructed; His tag (before the propeptide) (N, cleaved yes); made in house; host or cells: FreeStyle 293F
T8 sequence (P14780 107-449 D185A): as the sequence (P14780 107-449 V398A) above, with D79A, A292V counted along it
Description: as §1, §2

active hMMP-9(cat)_Y423A = biological target: T9, active hMMP-9(cat)_Y423A (Homo sapiens, UniProt P14780, Y423A); test: Inhibition of human MMP-9 mutant Y423A; assay type: biochemical
T9 construct: of the enzyme active domain (Phe107-Pro449) were constructed; His tag (ahead of the propeptide in the precursor) (N, cleaved yes); made in house; host or cells: FreeStyle 293F
T9 sequence (P14780 107-449 Y423A): as the sequence (P14780 107-449 V398A) above, with A292V, Y317A counted along it
Description: as §1, §2

active hMMP-9(cat)_M422I = biological target: T10, active hMMP-9(cat)_M422I (Homo sapiens, UniProt P14780, M422I); test: Inhibition of human MMP-9 mutant M422I; assay type: biochemical
T10 construct: of the enzyme active domain (Phe107-Pro449) were constructed; His tag (before the propeptide) (N, cleaved yes); made in house; host or cells: FreeStyle 293F
T10 sequence (P14780 107-449 M422I): as the sequence (P14780 107-449 V398A) above, with A292V, M316I counted along it
Description: as §1, §2

active hMMP-9(cat)_R424T = biological target: T11, active hMMP-9(cat)_R424T (Homo sapiens, UniProt P14780, R424T); test: Inhibition of human MMP-9 mutant R424T; assay type: biochemical
T11 construct: of the enzyme active domain (Phe107-Pro449) were constructed; His tag (ahead of the propeptide in the precursor) (N, cleaved yes); made in house; host or cells: FreeStyle 293F
T11 sequence (P14780 107-449 R424T): as the sequence (P14780 107-449 V398A) above, with A292V, R318T counted along it
Description: as §1, §2

active hMMP-9(cat)_Y393A = biological target: T12, active hMMP-9(cat)_Y393A (Homo sapiens, UniProt P14780, Y393A); test: Inhibition of human MMP-9 mutant Y393A; assay type: biochemical
T12 construct: of the enzyme active domain (Phe107-Pro449) were constructed; His tag (before the propeptide) (N, cleaved yes); made in house; host or cells: FreeStyle 293F
T12 sequence (P14780 107-449 Y393A): as the sequence (P14780 107-449 V398A) above, with Y287A, A292V counted along it
Description: as §1, §2

active hMMP-9(cat)_Q199G = biological target: T13, active hMMP-9(cat)_Q199G (Homo sapiens, UniProt P14780, Q199G); test: Inhibition of human MMP-9 mutant Q199G; assay type: biochemical
T13 construct: of the enzyme active domain (Phe107-Pro449) were constructed; His tag (before the propeptide) (N, cleaved yes); made in house; host or cells: FreeStyle 293F
T13 sequence (P14780 107-449 Q199G): as the sequence (P14780 107-449 V398A) above, with Q93G, A292V counted along it
Description: as §1, §2

active hMMP-9(cat)_Y420A = biological target: T14, active hMMP-9(cat)_Y420A (Homo sapiens, UniProt P14780, Y420A); test: Inhibition of human MMP-9 mutant Y420A; assay type: biochemical
T14 construct: of the enzyme active domain (Phe107-Pro449) were constructed; His tag (before the propeptide) (N, cleaved yes); made in house; host or cells: FreeStyle 293F
T14 sequence (P14780 107-449 Y420A): as the sequence (P14780 107-449 V398A) above, with A292V, Y314A counted along it
Description: as §1, §2

active hMMP-9(cat)_F110A = biological target: T15, active hMMP-9(cat)_F110A (Homo sapiens, UniProt P14780, F110A); test: Inhibition of human MMP-9 mutant F110A; assay type: biochemical
T15 construct: of the enzyme active domain (Phe107-Pro449) were constructed; His tag (before the propeptide) (N, cleaved yes); made in house; host or cells: FreeStyle 293F
T15 sequence (P14780 107-449 F110A): as the sequence (P14780 107-449 V398A) above, with F4A, A292V counted along it
Description: as §1, §2

active hMMP-9(cat)_L187A = biological target: T16, active hMMP-9(cat)_L187A (Homo sapiens, UniProt P14780, L187A); test: Inhibition of human MMP-9 mutant L187A; assay type: biochemical
T16 construct: of the enzyme active domain (Phe107-Pro449) were constructed; His tag (before the propeptide) (N, cleaved yes); made in house; host or cells: FreeStyle 293F
T16 sequence (P14780 107-449 L187A): as the sequence (P14780 107-449 V398A) above, with L81A, A292V counted along it
Description: as §1, §2

Molecule | IC50 increase compared to wild type (active hMMP-9(cat)_V398A) | IC50 increase compared to wild type (active hMMP-9(cat)_L397A) | IC50 increase compared to wild type (active hMMP-9(cat)_F192A) | IC50 increase compared to wild type (active hMMP-9(cat)_Y179A) | IC50 [1] | binding to active human MMP-9 enzyme active domain (peak shift) [2] | binding to human MMP-9 enzyme active domain E402Q mutant (peak shift) [3] | IC50 increase compared to wild type (active hMMP-9(cat)_P193A) | IC50 increase compared to wild type (active hMMP-9(cat)_D185A) | IC50 increase compared to wild type (active hMMP-9(cat)_Y423A) | IC50 increase compared to wild type (active hMMP-9(cat)_M422I) | IC50 increase compared to wild type (active hMMP-9(cat)_R424T) | IC50 increase compared to wild type (active hMMP-9(cat)_Y393A) | IC50 increase compared to wild type (active hMMP-9(cat)_Q199G) | IC50 increase compared to wild type (active hMMP-9(cat)_Y420A) | IC50 increase compared to wild type (active hMMP-9(cat)_F110A) | IC50 increase compared to wild type (active hMMP-9(cat)_L187A)
B1 | 4.8 times | 3.5 times | 5.0 times | 4.9 times | 0.017 ± 0.005 µM | bind to the active human MMP-9 enzyme active domain | do not bind to human MMP-9 enzyme active domain E402Q mutant | 6.5 times | 19.0 times | > 20.0 times | 2.6 times | 2.7 times | > 57.6 times | – | – | – | –
B2 | 2.2 times | 2.2 times | > 57.8 times | 3.2 times | 0.017 ± 0.007 µM | bind to the active human MMP-9 enzyme active domain | do not bind to human MMP-9 enzyme active domain E402Q mutant | – | – | 13.2 times | 2.6 times | – | 2.7 times | 2.3 times | 3.1 times | 4.0 times | 6.7 times
